{
  "source": "paper PMC8409903",
  "target": "T1, mixed lineage kinase domain-like pseudokinase (MLKL) (human (endogenous in platelets)), Q8NB16",
  "T1 chain": "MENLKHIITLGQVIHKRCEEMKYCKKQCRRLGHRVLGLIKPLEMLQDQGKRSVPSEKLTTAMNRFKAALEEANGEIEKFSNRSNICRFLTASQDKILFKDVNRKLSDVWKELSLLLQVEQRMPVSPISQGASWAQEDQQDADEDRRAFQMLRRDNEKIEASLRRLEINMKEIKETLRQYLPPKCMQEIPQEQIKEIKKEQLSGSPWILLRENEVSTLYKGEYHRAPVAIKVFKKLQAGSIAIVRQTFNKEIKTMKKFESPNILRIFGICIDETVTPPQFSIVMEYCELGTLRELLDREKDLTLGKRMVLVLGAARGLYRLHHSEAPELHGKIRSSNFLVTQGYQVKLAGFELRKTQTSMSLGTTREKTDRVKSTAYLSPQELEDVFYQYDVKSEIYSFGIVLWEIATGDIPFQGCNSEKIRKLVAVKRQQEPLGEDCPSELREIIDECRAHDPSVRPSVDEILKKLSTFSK",
  "experiment": "western blot of platelets",
  "details": "remark: other sources report otherwise",
  "data": [
    {"binder": "mixed lineage kinase domain-like pseudokinase (MLKL), Q8NB16 1-471 (natural protein) MENLKHIITLGQVIHKRCEEMKYCKKQCRRLGHRVLGLIKPLEMLQDQGKRSVPSEKLTTAMNRFKAALEEANGEIEKFSNRSNICRFLTASQDKILFKDVNRKLSDVWKELSLLLQVEQRMPVSPISQGASWAQEDQQDADEDRRAFQMLRRDNEKIEASLRRLEINMKEIKETLRQYLPPKCMQEIPQEQIKEIKKEQLSGSPWILLRENEVSTLYKGEYHRAPVAIKVFKKLQAGSIAIVRQTFNKEIKTMKKFESPNILRIFGICIDETVTPPQFSIVMEYCELGTLRELLDREKDLTLGKRMVLVLGAARGLYRLHHSEAPELHGKIRSSNFLVTQGYQVKLAGFELRKTQTSMSLGTTREKTDRVKSTAYLSPQELEDVFYQYDVKSEIYSFGIVLWEIATGDIPFQGCNSEKIRKLVAVKRQQEPLGEDCPSELREIIDECRAHDPSVRPSVDEILKKLSTFSK", "values": [
      {"measurement": "stoichiometry N", "result": 8}
    ]}
  ]
}
